Source: patent US20240141041A1

Target: CD52 (human) (UniProt P31358)
Assay: cell-based or functional assay

depletion of infused CD4CAR T cells in mouse blood, 0.1 mg/kg CAMPATH, 6 h and 48 h: > 95%
Substance: CAMPATH (alemtuzumab) (antibody)
